According to paper doi:10.1101/2023.04.25.538284 (bioRxiv, 2023):
Values belong to the binder of their own block, whether it stands above or below them.

Target: T1, His-MBP-SIZ1-C (Arabidopsis thaliana, UniProt Q680Q4-3 435-873)
T1 sequence (looked up): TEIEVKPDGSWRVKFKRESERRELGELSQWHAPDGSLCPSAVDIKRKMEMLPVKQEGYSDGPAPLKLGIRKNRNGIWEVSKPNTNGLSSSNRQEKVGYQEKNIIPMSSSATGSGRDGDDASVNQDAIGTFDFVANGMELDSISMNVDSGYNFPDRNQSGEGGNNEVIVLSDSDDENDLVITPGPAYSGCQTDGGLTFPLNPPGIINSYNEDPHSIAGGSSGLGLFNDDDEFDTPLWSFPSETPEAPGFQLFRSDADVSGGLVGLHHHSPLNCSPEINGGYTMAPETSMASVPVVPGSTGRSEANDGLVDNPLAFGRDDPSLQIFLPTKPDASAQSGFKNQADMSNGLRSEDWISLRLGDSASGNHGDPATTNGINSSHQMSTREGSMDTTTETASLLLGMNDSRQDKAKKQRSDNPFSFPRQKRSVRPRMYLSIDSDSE
Assay: pull-down

binding result: binds
B1: GST-SnRK2.6 (enzyme, Arabidopsis thaliana, UniProt Q940H6 1-362, looked up)
chain: MDRPAVSGPMDLPIMHDSDRYELVKDIGSGNFGVARLMRDKQSNELVAVKYIERGEKIDENVKREIINHRSLRHPNIVRFKEVILTPTHLAIVMEYASGGELFERICNAGRFSEDEARFFFQQLISGVSYCHAMQVCHRDLKLENTLLDGSPAPRLKICDFGYSKSSVLHSQPKSTVGTPAYIAPEVLLKKEYDGKVADVWSCGVTLYVMLVGAYPFEDPEEPKNFRKTIHRILNVQYAIPDYVHISPECRHLISRIFVADPAKRISIPEIRNHEWFLKNLPADLMNDNTMTTQFDESDQPGQSIEEIMQIIAEATVPPAGTQNLNHYLTGSLDIDDDMEEDLESDLDDLDIDSSGEIVYAM

binding result: binds
B2: GST-SnRK2.4 (enzyme, Arabidopsis thaliana, UniProt P43291 1-363, looked up)
chain: MDKYELVKDIGAGNFGVARLMKVKNSKELVAMKYIERGPKIDENVAREIINHRSLRHPNIIRFKEVVLTPTHLAIAMEYAAGGELFERICSAGRFSEDEARYFFQQLISGVSYCHAMQICHRDLKLENTLLDGSPAPRLKICDFGYSKSSLLHSRPKSTVGTPAYIAPEVLSRREYDGKMADVWSCGVTLYVMLVGAYPFEDQEDPKNFRKTIQKIMAVQYKIPDYVHISQDCKNLLSRIFVANSLKRITIAEIKKHSWFLKNLPRELTETAQAAYFKKENPTFSLQTVEEIMKIVADAKTPPPVSRSIGGFGWGGNGDADGKEEDAEDVEEEEEEVEEEEDDEDEYDKTVKEVHASGEVRIS
